Source: PMC6957213

Tests used:
[1] = system: T1, GdhR (Neisseria gonorrhoeae FA19), ORF:8165ddaf; test: competition; conditions: EMSA: 12 fmol DIG-DNA in 20 uL, 20 mM Hepes pH 7.6, 1 mM EDTA, 10 mM (NH4)2SO4, 1 mM DTT, 0.2% Tween-20, 30 mM KCl, 1.25 ng/uL calf thymus DNA, 25 min, 30 C
T1 sequence: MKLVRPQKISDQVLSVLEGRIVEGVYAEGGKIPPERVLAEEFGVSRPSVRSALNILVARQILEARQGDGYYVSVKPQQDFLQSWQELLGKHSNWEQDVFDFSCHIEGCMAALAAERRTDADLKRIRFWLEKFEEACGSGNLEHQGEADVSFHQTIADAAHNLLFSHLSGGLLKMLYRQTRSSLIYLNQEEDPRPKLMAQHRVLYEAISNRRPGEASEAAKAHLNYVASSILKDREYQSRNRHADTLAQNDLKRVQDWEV

[2] = system: T1, GdhR (Neisseria gonorrhoeae FA19), ORF:8165ddaf; test: EMSA; conditions: EMSA: 12 fmol DIG-DNA in 20 uL, 20 mM Hepes pH 7.6, 1 mM EDTA, 10 mM (NH4)2SO4, 1 mM DTT, 0.2% Tween-20, 30 mM KCl, 1.25 ng/uL calf thymus DNA, 25 min, 30 C

“GTGGACGGGGACGGCGCGGTATTCGTGCCGCCGGAAGAATGCTGAAAATGCCGTCTGAAGCCTTTCGGGCGGCTTTTTCTACACGCCCCTTTCCCACACTCCCTCCGCCGCATCATCACCATCCTTAACCCGCATTAATAGCCATTATCGATAAAATGCTTGACCGATTACATAAGATTACGTAAAGTGTGCAAACGCATAATAATTGGTCTTACCAATTTATCTTTTAACCAAAATATCGGGTGTGCGGGATTTGAACGTCTTTCCAAACCTCGACGCGCCTTATGATGC (double strand) [lctP promoter, unlabeled competitor]” was tested, and the binding [1] was “binds”.
For “CGTAGGGTGCGAGCGTTAATCGGAATTACTGGGCGTAAAGCGGGCGCAGACGGTTACTTAAGCAGGATGTGAAATCCCCGGGCTCAACCCGGGAACTGCGTTCTGAACTGGGTGACTCGAGTGTGTCAGAGGGAGGTGGAATTCCACGTGTAGCAGTGAAATGCGTAGAGATGTGGAGGAATACCGATGG (double strand) [16S rRNA gene fragment]”, the binding [1] was “no binding”.
For “GTGGACGGGGACGGCGCGGTATTCGTGCCGCCGGAAGAATGCTGAAAATGCCGTCTGAAGCCTTTCGGGCGGCTTTTTCTACACGCCCCTTTCCCACACTCCCTCCGCCGCATCATCACCATCCTTAACCCGCATTAATAGCCATTATCGATAAAATGCTTGACCGATTACATAAGATTACGTAAAGTGTGCAAACGCATATCTTTTAACCAAAATATCGGGTGTGCGGGATTTGAACGTCTTTCCAAACCTCGACGCGCCTTATGATGC (double strand) [lctPΔFadR EMSA probe]”, the binding [2] was “binds more weakly”.
